The results in this text go back to US20230192817A1 (ZHUHAI TRINOMAB PHARMACEUTICAL, published 2023).

The target of test [1] is T1, VZV gH/gL protein complex (CAMBRIDGEBIO, Cat No: 01-11-0045) (Varicella-Zoster Virus, UniProt P09260 18-802; P09308 22-159).
T1 construct: also called gHgL-Cambridge
T1 sequence 1: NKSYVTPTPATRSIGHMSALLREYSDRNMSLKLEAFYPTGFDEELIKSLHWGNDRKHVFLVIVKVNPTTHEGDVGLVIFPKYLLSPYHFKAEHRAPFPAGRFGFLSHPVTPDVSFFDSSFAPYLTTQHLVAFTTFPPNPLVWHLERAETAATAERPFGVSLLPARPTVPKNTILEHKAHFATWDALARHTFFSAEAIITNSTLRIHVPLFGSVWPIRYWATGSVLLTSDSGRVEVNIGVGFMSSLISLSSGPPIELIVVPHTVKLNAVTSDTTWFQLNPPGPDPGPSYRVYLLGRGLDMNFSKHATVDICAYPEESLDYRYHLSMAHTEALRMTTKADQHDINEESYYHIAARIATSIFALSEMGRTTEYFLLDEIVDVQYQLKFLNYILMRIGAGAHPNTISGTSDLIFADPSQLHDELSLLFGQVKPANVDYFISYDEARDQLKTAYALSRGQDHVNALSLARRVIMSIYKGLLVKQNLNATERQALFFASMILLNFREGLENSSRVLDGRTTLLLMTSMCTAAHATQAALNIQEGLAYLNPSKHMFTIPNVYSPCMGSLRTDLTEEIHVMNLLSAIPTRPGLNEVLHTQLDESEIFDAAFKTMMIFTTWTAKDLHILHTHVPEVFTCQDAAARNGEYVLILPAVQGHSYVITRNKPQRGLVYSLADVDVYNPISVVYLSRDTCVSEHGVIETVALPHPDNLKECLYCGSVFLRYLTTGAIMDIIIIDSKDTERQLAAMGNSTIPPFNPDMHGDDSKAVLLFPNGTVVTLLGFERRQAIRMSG
T1 sequence 2: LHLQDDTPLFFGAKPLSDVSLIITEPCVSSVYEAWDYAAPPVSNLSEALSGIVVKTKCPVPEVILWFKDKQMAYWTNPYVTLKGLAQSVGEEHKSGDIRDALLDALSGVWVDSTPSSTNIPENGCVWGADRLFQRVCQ
The test is described as follows: ELISA, plate coated with 100 ng/well VZV gH/gL complex, detection Goat-Anti-IgG-Fab-HRP.

Test [2] addresses T1, VZV gH/gL protein complex …. The test is described as follows: SPR (Biacore), antibody captured on anti-human IgG (Fc) CM5 chip, gH/gL complex as analyte.
Test [3] has the same target. The test is described as follows: ELISA, culture supernatant.

B1: fully human VZV monoclonal antibody TRN1024 (antibody, V domains shown)
VH: QVQLVQSGGGLVQPGGSLRLSCEASGFTFSSYWMSWVRQAPGKGLEWVANIKQDGSEKYYVDSVKGRFSISRDNAKNSLYLQMNSLRVEDTAVYYCAREGGGQGKWRLEYGMDVWGQGTTVIVSS
VL: not shown
Consider B1, for which the “EC50 (read off the curve)” value in test [1] was ~0.6 µg/mL. In test [2], this molecule had a Kd of 36.7 nM, a koff of 0.000621 s⁻¹ and a kon of 16900 M⁻¹ s⁻¹.

B2: fully human VZV monoclonal antibody TRN1026 (antibody, V domains shown)
VH: QVQLVQSGAEVKKPGSSVKVSCKASGRTFSSYAYSWVRQAPGQGLEWMGRVIPVLGITNYAPKFQGKVTITVDKVTSTAFLELTGLKSDDTAVYYCARVSDDVLTGALDYWGQGTLVTVSS
VL: QSVLTQPPSVSGSPGQSVTISCTGTRSDVGSHNRVAWFQQSPGTAPKLMIYEVTNRPSGVPDRFSGSKSGNTASLTISGLQAEDEADYYCSSYTSTSTWVFGGGTKLTVL
In test [2], B2 gave a Kd of 2.66 nM, an off-rate constant (koff) of 0.000274 s⁻¹ and a kon of 103000 M⁻¹ s⁻¹.

B3: antibody variant derived from antibody TRN1026 (antibody, V domains shown)
VH: QVQLVQSGAEVKKPGSSVKVSCKASGRTFSSYAYSWVRQAPGQGLEWMGRVIPVLGITNYAPKFQDKVTITADKVTSTAFLELTGLKSDDTAVYYCARVSDDVLTGALDYWGQGTLVTVSS
VL: QSVLTQPPSVSGSPGQSVTISFTGTRSDVGSHNRVAWFQQSPGTAPKLMIYEVTNRPSGVPDRFSGSKSGNTASLTISGLQAEDEADYYCSSYTSTSTWVFGGGTKLTVL
notes: also called Antibody derived from TRN1026
As to B3, in test [3], the 50% effective concentration (EC50) turned out to be 0.05 µg/mL.

B4: fully human VZV monoclonal antibody TRN1025 (antibody, V domains shown)
VH: QVQLVQSGGGLVQPGGSLRLSCVASGFTFSSYAMTWVRQAPGKGLEWVSTISGSGGSTFYADSVRGRFTISRDNSKNALYLQMNSLRAEDTAVYYCAKDRSYGGNQPFDYWGQGTLVTVSS
VL: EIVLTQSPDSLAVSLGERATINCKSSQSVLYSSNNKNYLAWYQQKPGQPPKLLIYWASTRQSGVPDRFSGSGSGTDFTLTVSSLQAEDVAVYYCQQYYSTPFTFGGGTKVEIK
Consider B4, for which the concentration giving a half-maximal response (EC50 (read off the curve)) in test [1] was ~0.5 µg/mL. In test [2], the Kd is 13.4 nM, the dissociation rate constant (koff) worked out at 0.000416 s⁻¹ and the kon came out at 31100 M⁻¹ s⁻¹.
